Our source for the binding result and IC50 values is US20140235701, “NGF APTAMER AND APPLICATION THEREOF” (RIBOMIC INC., published 2014).

Common to all, as to conditions: tags: R&D Systems; chain copies: 2
The target in data set [1] is T1, NGF (nerve growth factor) (Homo sapiens, UniProt P01138 P01138:122-241). The data set is described as follows: SPR; more than 40N control. The method, then: As the measuring apparatus, BIAcore2000 manufactured by BIAcore was used and, as the sensor chip, CM5 that reacts with an amino group was used. […] For the reaction of an amino group on the protein side and a carboxyl group on the chip side, ethyl-3-carbodiimide hydrochloride and N-hydroxysuccinimide were used. After the reaction, blocking by ethanolamine-HCl was performed. The immobilized amount of NGF was set to 3,000-4,000 RU. An aptamer for analyte was prepared to 0.15 μM-0.5 μM. As a running buffer, solution A was used. Here, solution A is a mixed solution of 145 mM sodium chloride, 5.4 mM potassium chloride, 1.8 mM calcium chloride, 0.8 mM magnesium chloride, 20 mM Tris (pH 7.6), 0.05% Tween 20. As a regeneration solution, a mixed solution of 1M NaCl and 50 mM NaOH was used. NGF was immobilized on FC2, and the results of FC1 were subtracted to give a final sensorgram.
The measurement was as shown in Examples 1 and 2 and the surface plasmon resonance method was used.
In general terms: SPR reads the build-up and loss of mass on a sensor chip optically.

In data set [2] the target is T1, NGF (nerve growth factor). Kind of data set: SPR; more than 40N control. The source holds these as a separate data set.
For a further data set, the target named is T2, NT-4 (neurotrophin-4) (Homo sapiens, UniProt P34130 P34130:81-210).
T2 sequence: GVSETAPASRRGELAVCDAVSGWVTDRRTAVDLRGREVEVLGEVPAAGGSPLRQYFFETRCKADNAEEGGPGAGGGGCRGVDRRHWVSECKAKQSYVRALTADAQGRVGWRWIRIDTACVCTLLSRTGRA
Kind of data set: cell_activity; TF-1. The source says: Using TF-1 cells, whether NGF aptamer inhibits BDNF, NT-3, NT-4 was examined. Human receptor genes (TrkB, TrkC, p75) for respective neurotrophic factors were introduced into TF-1 cells (ATCC Number: CRL-2003), which is a human erythroleukemic cell line, by using a retrovirus vector to give cells that highly express these receptors stably. TF-1 cells introduced with TrkB and p75 were used for the evaluation of inhibitory activity against BDNF, TF-1 cells introduced with TrkC and p75 were used for the evaluation against NT-3, and TF-1 cells introduced with TrkB alone were used for the evaluation against NT-4. These cells were suspended in an RPMI-1640 medium containing 20% fetal bovine serum, and seeded in a white 96 well flat-bottom plate at 1000 cells (50 μL) per well. Thereto was added a mixed solution 50 μL of human BDNF (final concentration 0.074 nM) or NT-3 (final concentration 0.074 nM) or NT-4 (final concentration 0.071 nM) and the aptamer (final concentration 1 μM-0.01 nM), which had been pre-reacted at room temperature for 30 min in a serum-free RPMI-1640 medium, 3 days later, 100 μL of CellTiter-Glo reagent for CellTiter-Glo Luminescent Cell Viability Assay (manufactured by Promega) was added to each well, chemiluminescence was measured by a microplate reader. With the amount of luminescence per well obtained by the addition of BDNF or NT-3 or NT-4 alone and culture of the cells for 3 days as inhibitory activity 0%, and that of the well obtained by culture for 3 days without addition of BDNF or NT-3 or NT-4 as inhibitory activity 100%, the inhibitory activity of the aptamer was calculated from the amount of luminescence per well obtained by culturing with the addition of BDNF or NT-3 or NT-4 and the aptamer in mixture. When the inhibitory activity was 0 or below, ‘0%’ is indicated. The 50% inhibitory concentration (IC₅₀) was determined from the concentrations at two, above and below points sandwiching the 50% inhibitory activity. An IC₅₀ value indicated as “>X” means that the inhibitory activity was not more than 50% when the indicated concentration X was the maximum measured concentration. N.D. means not measured.

Some results are limits rather than exact numbers.

T1 sequence (P01138 122-241, one chain of several): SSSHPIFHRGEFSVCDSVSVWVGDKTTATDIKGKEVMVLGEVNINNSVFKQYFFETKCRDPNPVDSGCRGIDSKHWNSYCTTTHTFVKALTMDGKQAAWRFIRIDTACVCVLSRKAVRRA

B1: SEQ ID NO: 30 (ssRNA)
RNA: GGGAGAACUUCGACCAGAAGUUGGCACAUCCUGCUGCGAAGGUUCCGUCUUCGUGGCUGUACUAUGUGCGCAUACAUGGAUCCUC
modifications: 2'-F C/U, dA, 2'-OH G
Take B1: in data set [1], the binding result is recorded as “binds”.

B2: SEQ ID NO: 36 (ssRNA)
RNA: GGGAGAACUUCGACCAGAAGGUACGUUAGUACGUUUGCAUAUGUACAACCUUGCAUACGAUACGUAGGUUAUGUGCGCAUACAUGGAUCCUC
modifications: 2'-F C/U, dA, 2'-OH G
As to B2, in data set [1], the binding result is on record as “binds”.

B3: SEQ ID NO: 23 (ssRNA)
RNA: GGGAGAACUUCGACCAGAAGUGGCACAUCCUGCUGCGUAGUUUCCGUCUGCGUGGCUGUUAUGUGCGCAUACAUGGAUCCUC
modifications: 2'-F C/U, dA, 2'-OH G
For B3, in data set [1], the binding result is reported as “binds”.

B4: SEQ ID NO: 56 (ssRNA)
RNA: GGGAGAACUUCGACCAGAAGUUGCACAUCCUGCUGUGUAGUUUCCGUCUGCAUGGUUGUUAUGUGCGCAUACAUGGAUCCUC
modifications: 2'-F C/U, dA, 2'-OH G
Take B4: the binding result in data set [2] is on record as “binds”.

B5: SEQ ID NO: 26 (ssRNA)
RNA: GGGAGAACUUCGACCAGAAGUGGCACAUCCUGCUGCGUAGUUUCCGUCUUCGCGGCUGUUAUGUGCGCAUACAUGGAUCCUC
modifications: 2'-F C/U, dA, 2'-OH G
On to B5, for which, in data set [1], the binding result is recorded as “binds”. In the data set with NT-4 (neurotrophin-4), GGGUCCUGGAUAAGAGUUUCCGUCUCGUAUCCUGUUACCC (ssRNA, as 82(25) except 5' PEG80TS4 instead of idT) [SEQ ID NO: 82(55)] had an IC50 of 14.3 nM. As to GGGUCCUGGAUAAGAGUUUCCGUCUCGUAUCCUGUUACCC (ssRNA, 2'-OMe G (G8,G34 2'-OH), dA, 2'-F C/U; 5',3' idT) [SEQ ID NO: 82(1)], in the data set with NT-4 (neurotrophin-4), the IC50 is < 100 nM.

B6: SEQ ID NO: 22 (ssRNA)
RNA: GGGAGAACUUCGACCAGAAGUUGGCACAUCCUGCUGCGUAGUUUCCGUCUUCGUGGCUGUUAUGUGCGCAUACAUGGAUCCUC
modifications: 2'-F C/U, dA, 2'-OH G
For the molecule B6, in data set [1], the binding result is on record as “binds”.

B7: SEQ ID NO: 28 (ssRNA)
RNA: GGGAGAACUUCGACCAGAAGUUGGCACAUCCUGCUGCGUAGUUUCCAUCUGCGUGGCUGUUAUGUGCGCAUACAUGGAUCCUC
modifications: 2'-F C/U, dA, 2'-OH G
In the case of B7, the binding result in data set [1] was “binds”.

B8: SEQ ID NO: 31 (ssRNA)
RNA: GGGAGAACUUCGACCAGAAGUUGGCACAUCCUGCUGCGCAGUUUCCCUCUGCGUGGCUGUUAUGUGCGCAUACAUGGAUCCUC
modifications: 2'-F C/U, dA, 2'-OH G
With B8, the binding result in data set [1] is reported as “binds”.

B9: SEQ ID NO: 37 (ssRNA)
RNA: GGGAGAACUUCGACCAGAAGUUGGCACAUCCUGCUACGUAGUUUCCUUCUUCGUGGCUGUUAUGUGCGCAUACAUGGAUCCUC
modifications: 2'-F C/U, dA, 2'-OH G
As to B9, the binding result in data set [1] is “binds”.

B10: SEQ ID NO: 55 (ssRNA)
RNA: GGGAGAACUUCGACCAGAAGUUGGCACAUCCUGUUGCGUAGUUUCCGUCUGCGUGGCUGUUAUGUGCGCAUACAUGGAUCCUC
modifications: 2'-F C/U, dA, 2'-OH G
In the case of B10, the binding result in data set [2] was “binds”.

B11: SEQ ID NO: 48 (ssRNA)
RNA: GGGAGAACUUCGACCAGAAGUUGGCACAUCCUGCUGCGGAGUUUCCGUCUCGGUGGCUGUUAUGUGCGCAUACAUGGAUCCUC
modifications: 2'-F C/U, dA, 2'-OH G
Regarding B11, in data set [2], the binding result was “binds”.

B12: SEQ ID NO: 33 (ssRNA)
RNA: GGGAGAACUUCGACCAGAAGUUGGCACAUCCUGCCGCGUAGUUUCAAUCUUGGUGGCGUGUAUGUGCGCAUACAUGGAUCCUC
modifications: 2'-F C/U, dA, 2'-OH G
Take B12: the binding result in data set [1] is listed as “binds”.

B13: SEQ ID NO: 25 (ssRNA)
RNA: GGGAGAACUUCGACCAGAAGUUGGCACAUCCUGCUGCGCAGUUUCCGUCUACGUGGCUGUUAUGUGCGCAUACAUGGAUCCUC
modifications: 2'-F C/U, dA, 2'-OH G
In the case of B13, the binding result in data set [1] is listed as “binds”.

B14: SEQ ID NO: 53 (ssRNA)
RNA: GGGAGAACUUCGACCAGAAGUUUGCACAUCCUGCUGCGCAGUUUCCGUCUACGUGGCUGUUAUGUGCGCAUACAUGGAUCCUC
modifications: 2'-F C/U, dA, 2'-OH G
For B14, the binding result in data set [2] is recorded as “binds”.

B15: SEQ ID NO: 35 (ssRNA)
RNA: GGGAGAACUUCGACCAGAAGUUGGCACAUCCUGUUGCGUAGUUUCCUUCUACGUGGCUGUUAUGUGCGCAUACAUGGAUCCUC
modifications: 2'-F C/U, dA, 2'-OH G
With B15, the binding result in data set [1] is on record as “binds”.

B16: SEQ ID NO: 32 (ssRNA)
RNA: GGGAGAACUUCGACCAGAAGUUGGCACAUCCUGCUGCGGAGUUUCCUUCUUCGUGGCUGUUAUGUGCGCAUACAUGGAUCCUC
modifications: 2'-F C/U, dA, 2'-OH G
On to B16, for which the binding result in data set [1] is listed as “binds”.

B17: SEQ ID NO: 34 (ssRNA)
RNA: GGGAGAACUUCGACCAGAAGUUGGCACAUCCUGCCGCGUAGUUUCCGUCUGCGUGGCUGUUAUGUGCGCAUACAUGGAUCCUC
modifications: 2'-F C/U, dA, 2'-OH G
Take B17: the binding result in data set [1] is “binds”.

B18: SEQ ID NO: 49 (ssRNA)
RNA: GGGAGAACUUCGACCAGAAGUUUGCACAUCCUGCUGCGUAGUUUCCGUCUACGUGGCUGUUAUGUGCGCAUACAUGGAUCCUC
modifications: 2'-F C/U, dA, 2'-OH G
Consider B18, for which the binding result in data set [2] was “binds”.

B19: SEQ ID NO: 57 (ssRNA)
RNA: GGGAGAACUUCGACCAGAAGUAGGCACGUCCUGCUGCAUAGUUUCCGUCUGUGUGGCUGUUAUGUGCGCAUACAUGGAUCCUC
modifications: 2'-F C/U, dA, 2'-OH G
For the molecule B19, the binding result in data set [2] was “binds”.

B20: SEQ ID NO: 58 (ssRNA)
RNA: GGGAGAACUUCGACCAGAAGUUGACACAUCCUGCUGCGUAGUUUCCGUCUGCGUGGUUGUUAUGUGCGCAUACAUGGAUCCUC
modifications: 2'-F C/U, dA, 2'-OH G
Regarding B20, the binding result in data set [2] was “binds”.

B21: SEQ ID NO: 24 (ssRNA)
RNA: GGGAGAACUUCGACCAGAAGUUGGCACAUCCUGCUGCGAAGUUUCCGUCUCCGUGGCUGUUAUGUGCGCAUACAUGGAUCCUC
modifications: 2'-F C/U, dA, 2'-OH G
With B21, the binding result in data set [1] is recorded as “binds”.

B22: SEQ ID NO: 51 (ssRNA)
RNA: GGGAGAACUUCGACCAGAAGUUGGCACACCCUGCUACGGAGUUUCCGUCUCGGUGGCUGUUAUGUGCGCAUACAUGGAUCCUC
modifications: 2'-F C/U, dA, 2'-OH G
With B22, in data set [2], the binding result is “binds”.

B23: SEQ ID NO: 54 (ssRNA)
RNA: GGGAGAACUUCGACCAGAAGUUGGCACAUCCUGAUGCGUAGUUUCCGUCUGCGUGUCUGUUAUGUGCGCAUACAUGGAUCCUC
modifications: 2'-F C/U, dA, 2'-OH G
Take B23: in data set [2], the binding result is “binds”.

B24: SEQ ID NO: 52 (ssRNA)
RNA: GGGAGAACUUCGACCAGAAGUUGGCACAUCCUGCUGCAUAGUUUCCGUCUUUGUGGCUGUUAUGUGCGCAUACAUGGAUCCUC
modifications: 2'-F C/U, dA, 2'-OH G
Turning to B24, the binding result in data set [2] is on record as “binds”.

B25: SEQ ID NO: 27 (ssRNA)
RNA: GGGAGAACUUCGACCAGAAGUUGGCACAUCCUGCUGCGCAGUUUCCGUCUGCGUGGCUGUUAUGUGCGCAUACAUGGAUCCUC
modifications: 2'-F C/U, dA, 2'-OH G
As for B25, in data set [1], the binding result is “binds”.

B26: SEQ ID NO: 50 (ssRNA)
RNA: GGGAGAACUUCGACCAGAAGCUGGCACAUCCUGUUGCGUAGUUUCCGUCUACGUGACUGUUAUGUGCGCAUACAUGGAUCCUC
modifications: 2'-F C/U, dA, 2'-OH G
For B26, the binding result in data set [2] is on record as “binds”.

B27: SEQ ID NO: 29 (ssRNA)
RNA: GGGAGAACUUCGACCAGAAGUUCACAUCCUGCUGCGAAGUUUCCUUCUUCGUGGCUGUUAUGUGCGCAUACAUGGAUCCUC
modifications: 2'-F C/U, dA, 2'-OH G
Regarding B27, the binding result in data set [1] is listed as “binds”.

As a reminder, the IC50 is the concentration that inhibits the measured activity by half.
